According to the supplement of paper PMC10065799, “High-throughput profiling of sequence recognition by tyrosine kinases and SH2 domains using bacterial peptide display” (eLife, 2023):

These sequences were tested against Hck (UniProt P08631) (assay: phosphorylation enrichment, bacterial display (enrichment ratio); higher = better substrate or ligand; peptides without Tyr show the background).
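Further: 11-residue human phosphosite peptides and single-mutation variants displayed on the E. coli surface, counted by deep sequencing, each peptide's frequency after selection divided by its frequency in the unselected input library; frequency after pTyr selection over input frequency; kinase dosed for 20-30% of maximal phosphorylation in three min.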

Sequence of Hck (P08631 whole entry, looked up): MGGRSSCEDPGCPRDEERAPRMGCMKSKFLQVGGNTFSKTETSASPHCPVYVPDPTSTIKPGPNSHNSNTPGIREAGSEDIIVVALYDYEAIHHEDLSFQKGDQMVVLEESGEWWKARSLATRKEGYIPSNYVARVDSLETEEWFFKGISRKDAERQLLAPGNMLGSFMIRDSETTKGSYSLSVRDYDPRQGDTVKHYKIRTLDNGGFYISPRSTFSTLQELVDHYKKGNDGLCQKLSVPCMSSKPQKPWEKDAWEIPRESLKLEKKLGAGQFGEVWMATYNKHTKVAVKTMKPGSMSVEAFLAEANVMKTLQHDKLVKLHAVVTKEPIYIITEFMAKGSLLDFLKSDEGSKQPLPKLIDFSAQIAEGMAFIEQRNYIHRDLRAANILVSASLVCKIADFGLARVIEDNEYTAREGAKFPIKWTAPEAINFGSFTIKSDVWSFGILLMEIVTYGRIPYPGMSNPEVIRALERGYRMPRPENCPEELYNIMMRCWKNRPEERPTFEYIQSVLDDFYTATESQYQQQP

Row | Sequence | phosphorylation enrichment
1 | SVVVPYEPAEV [TP53_Y220_P223A] | 0.498
2 | MLEVPYVDHNS [F10_Y384_R387H] | 0.618
3 | LVIIKYLPEWT [PSEN1_Y240_F237I] | 1.21
4 | AGLVQYFMEHH [PTPN11_Y80_E76G_YF] | 0.565
5 | RELGEYPLAEF [ALDH1A3_Y492_A493P_YF] | 0.536
6 | LIHTKYPQLLP [AHCY_Y143] | 0.428
7 | MQMEEYRGRVE [BTNL2_Y91_W94R] | 0.459
8 | EDEGLYMVRVP [MYOM3_Y343] | 4.63
9 | FKGIVYSVSSD [DCX_Y70_A71S] | 0.547
10 | PLGVPYLDKPP [JMJD7_Y31_A28G] | 0.463
11 | QPAGNYSLSSV [ARFGAP3_Y473] | 0.715
12 | CTNPQYLAAGS [RABL3_Y185_R184Q] | 0.505
13 | RGDTVYTVNRM [KBTBD13_Y404] | 1.61
14 | FESPRYLQVRI [FANCA_Y488_H492R] | 0.579
15 | AHAGEYGAGAL [HBA1_Y25_E28G] | 0.49
16 | FFRKFCNKSED [RYR1_Y4864_Y4864C] | 0.603
17 | EPSVDYCVVKI [CAD_Y735] | 0.664

Row | Sequence | phosphorylation enrichment
18 | SAQHHYESLQT [BIN1_Y157_R154Q] | 0.513
19 | AAPAAHDAADT [GAMT_Y27_Y27H] | 0.749
20 | SHKELYKWFTS [DYNC1H1_Y3051_E3048K] | 0.566
21 | CFTRQYTLPPG [HSPB1_Y142_K141Q] | 0.497
22 | LFCVHYFHRTF [SRD5A2_Y91] | 1.16
23 | SSENPCATIKD [MEGF10_Y1030_Y1030C] | 0.492
24 | ACRSLYGGFVE [MVD_Y164] | 7.94
25 | SKAFAYVHFDS [PABPC5_Y149_G146A_YF] | 0.51
26 | SVVVPYEPLEV [TP53_Y220_P223L] | 0.533
27 | VAFLYYKSIGP [ADGRL4_Y302_V300L] | 0.625
28 | CTTIHYNFMCK [TP53_Y234_N239K_YF] | 0.533
29 | TKVVHYRKWIK [KLK2_Y249] | 0.443
30 | RKRQFYLYKGK [RSPO4_Y112_C107R] | 0.358
31 | EALSLYTKLMN [STAM_Y371] | 0.505
32 | GQSKGYRPKLY [SIPA1L3_Y1376] | 0.4
33 | WNDPDYMDSRR [GAA_Y407_L405P] | 0.472

Each sequence was assayed against Jak2 (UniProt O60674) in the same assay as above.
Sequence of Jak2 (O60674 whole entry, looked up): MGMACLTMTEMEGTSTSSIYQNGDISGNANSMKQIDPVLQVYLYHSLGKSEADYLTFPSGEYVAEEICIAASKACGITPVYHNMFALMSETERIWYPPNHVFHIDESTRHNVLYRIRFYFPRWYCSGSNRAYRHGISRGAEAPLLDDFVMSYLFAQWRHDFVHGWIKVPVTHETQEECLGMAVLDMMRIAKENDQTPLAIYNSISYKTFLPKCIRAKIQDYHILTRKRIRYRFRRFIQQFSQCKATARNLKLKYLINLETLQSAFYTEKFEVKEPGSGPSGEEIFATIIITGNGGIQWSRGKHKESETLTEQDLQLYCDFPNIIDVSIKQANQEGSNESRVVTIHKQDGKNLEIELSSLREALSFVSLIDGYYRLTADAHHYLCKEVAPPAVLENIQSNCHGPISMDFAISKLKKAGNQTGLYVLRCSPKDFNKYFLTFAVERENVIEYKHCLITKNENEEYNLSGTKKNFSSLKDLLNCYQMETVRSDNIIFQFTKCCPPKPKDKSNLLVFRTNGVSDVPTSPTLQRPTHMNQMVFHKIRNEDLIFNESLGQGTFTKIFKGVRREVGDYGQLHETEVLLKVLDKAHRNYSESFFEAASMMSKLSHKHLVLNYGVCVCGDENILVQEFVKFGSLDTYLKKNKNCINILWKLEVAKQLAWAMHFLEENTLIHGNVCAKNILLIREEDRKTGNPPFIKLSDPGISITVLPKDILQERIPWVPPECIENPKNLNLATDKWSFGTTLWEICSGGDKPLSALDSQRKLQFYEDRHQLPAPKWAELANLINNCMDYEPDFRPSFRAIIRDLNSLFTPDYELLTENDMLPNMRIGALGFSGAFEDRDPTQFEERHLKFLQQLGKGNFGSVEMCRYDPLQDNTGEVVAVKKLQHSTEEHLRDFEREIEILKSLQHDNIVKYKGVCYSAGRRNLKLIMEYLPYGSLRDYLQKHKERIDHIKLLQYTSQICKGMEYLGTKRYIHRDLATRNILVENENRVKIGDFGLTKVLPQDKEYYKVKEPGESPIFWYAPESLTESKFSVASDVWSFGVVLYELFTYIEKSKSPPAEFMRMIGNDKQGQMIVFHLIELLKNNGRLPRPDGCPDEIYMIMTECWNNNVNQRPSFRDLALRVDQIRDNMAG

Row | Sequence | phosphorylation enrichment
34 | SVVVPYEPAEV [TP53_Y220_P223A] | 1.1
35 | MLEVPYVDHNS [F10_Y384_R387H] | 1.24
36 | LVIIKYLPEWT [PSEN1_Y240_F237I] | 2.79
37 | AGLVQYFMEHH [PTPN11_Y80_E76G_YF] | 0.962
38 | RELGEYPLAEF [ALDH1A3_Y492_A493P_YF] | 1.41
39 | LIHTKYPQLLP [AHCY_Y143] | 0.679
40 | MQMEEYRGRVE [BTNL2_Y91_W94R] | 0.573
41 | EDEGLYMVRVP [MYOM3_Y343] | 1.24
42 | FKGIVYSVSSD [DCX_Y70_A71S] | 0.959
43 | PLGVPYLDKPP [JMJD7_Y31_A28G] | 1.55
44 | QPAGNYSLSSV [ARFGAP3_Y473] | 0.874
45 | CTNPQYLAAGS [RABL3_Y185_R184Q] | 0.778
46 | RGDTVYTVNRM [KBTBD13_Y404] | 0.834
47 | FESPRYLQVRI [FANCA_Y488_H492R] | 0.756
48 | AHAGEYGAGAL [HBA1_Y25_E28G] | 0.608
49 | FFRKFCNKSED [RYR1_Y4864_Y4864C] | 0.779
50 | EPSVDYCVVKI [CAD_Y735] | 1.1

Row | Sequence | phosphorylation enrichment
51 | SAQHHYESLQT [BIN1_Y157_R154Q] | 0.484
52 | AAPAAHDAADT [GAMT_Y27_Y27H] | 0.531
53 | SHKELYKWFTS [DYNC1H1_Y3051_E3048K] | 0.717
54 | CFTRQYTLPPG [HSPB1_Y142_K141Q] | 0.901
55 | LFCVHYFHRTF [SRD5A2_Y91] | 2.73
56 | SSENPCATIKD [MEGF10_Y1030_Y1030C] | 0.66
57 | ACRSLYGGFVE [MVD_Y164] | 0.698
58 | SKAFAYVHFDS [PABPC5_Y149_G146A_YF] | 1.09
59 | SVVVPYEPLEV [TP53_Y220_P223L] | 0.947
60 | VAFLYYKSIGP [ADGRL4_Y302_V300L] | 1.44
61 | CTTIHYNFMCK [TP53_Y234_N239K_YF] | 0.631
62 | TKVVHYRKWIK [KLK2_Y249] | 0.415
63 | RKRQFYLYKGK [RSPO4_Y112_C107R] | 0.228
64 | EALSLYTKLMN [STAM_Y371] | 1.49
65 | GQSKGYRPKLY [SIPA1L3_Y1376] | 0.416
66 | WNDPDYMDSRR [GAA_Y407_L405P] | 0.779

What follows are sequences tested against MERTK (UniProt Q12866) in the same assay as above.
Sequence of MERTK (Q12866 whole entry, looked up): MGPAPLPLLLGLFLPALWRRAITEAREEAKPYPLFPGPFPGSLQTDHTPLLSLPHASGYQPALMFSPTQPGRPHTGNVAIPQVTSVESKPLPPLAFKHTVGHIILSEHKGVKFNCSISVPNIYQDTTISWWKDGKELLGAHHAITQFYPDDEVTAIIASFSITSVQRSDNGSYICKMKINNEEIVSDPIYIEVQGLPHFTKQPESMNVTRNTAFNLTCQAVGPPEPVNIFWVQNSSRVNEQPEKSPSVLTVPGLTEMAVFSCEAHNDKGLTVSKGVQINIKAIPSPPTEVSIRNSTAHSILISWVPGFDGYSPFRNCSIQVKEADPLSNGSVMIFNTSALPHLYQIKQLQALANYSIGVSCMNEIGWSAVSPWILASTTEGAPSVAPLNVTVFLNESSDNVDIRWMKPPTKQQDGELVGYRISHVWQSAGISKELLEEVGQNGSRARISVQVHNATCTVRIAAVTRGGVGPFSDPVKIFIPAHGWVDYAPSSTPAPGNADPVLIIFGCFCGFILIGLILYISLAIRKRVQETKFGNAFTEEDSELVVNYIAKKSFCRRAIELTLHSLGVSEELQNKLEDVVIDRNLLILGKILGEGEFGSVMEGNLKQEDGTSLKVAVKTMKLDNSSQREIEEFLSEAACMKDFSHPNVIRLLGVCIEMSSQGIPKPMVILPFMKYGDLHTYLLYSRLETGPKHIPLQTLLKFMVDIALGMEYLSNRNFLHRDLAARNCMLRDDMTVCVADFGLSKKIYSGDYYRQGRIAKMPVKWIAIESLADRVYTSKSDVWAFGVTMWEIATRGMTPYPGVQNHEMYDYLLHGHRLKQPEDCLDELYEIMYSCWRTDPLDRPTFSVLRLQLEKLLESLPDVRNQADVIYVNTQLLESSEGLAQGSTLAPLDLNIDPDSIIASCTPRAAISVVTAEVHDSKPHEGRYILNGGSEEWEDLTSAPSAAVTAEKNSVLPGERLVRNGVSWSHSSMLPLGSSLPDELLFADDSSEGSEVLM

Row | Sequence | phosphorylation enrichment
67 | SVVVPYEPAEV [TP53_Y220_P223A] | 0.488
68 | MLEVPYVDHNS [F10_Y384_R387H] | 0.424
69 | LVIIKYLPEWT [PSEN1_Y240_F237I] | 1.03
70 | AGLVQYFMEHH [PTPN11_Y80_E76G_YF] | 0.456
71 | RELGEYPLAEF [ALDH1A3_Y492_A493P_YF] | 0.614
72 | LIHTKYPQLLP [AHCY_Y143] | 0.6
73 | MQMEEYRGRVE [BTNL2_Y91_W94R] | 0.383
74 | EDEGLYMVRVP [MYOM3_Y343] | 1.79
75 | FKGIVYSVSSD [DCX_Y70_A71S] | 0.488
76 | PLGVPYLDKPP [JMJD7_Y31_A28G] | 0.942
77 | QPAGNYSLSSV [ARFGAP3_Y473] | 0.93
78 | CTNPQYLAAGS [RABL3_Y185_R184Q] | 0.424
79 | RGDTVYTVNRM [KBTBD13_Y404] | 0.808
80 | FESPRYLQVRI [FANCA_Y488_H492R] | 0.437
81 | AHAGEYGAGAL [HBA1_Y25_E28G] | 0.395
82 | FFRKFCNKSED [RYR1_Y4864_Y4864C] | 0.518
83 | EPSVDYCVVKI [CAD_Y735] | 0.529

Row | Sequence | phosphorylation enrichment
84 | SAQHHYESLQT [BIN1_Y157_R154Q] | 0.504
85 | AAPAAHDAADT [GAMT_Y27_Y27H] | 0.45
86 | SHKELYKWFTS [DYNC1H1_Y3051_E3048K] | 0.66
87 | CFTRQYTLPPG [HSPB1_Y142_K141Q] | 0.399
88 | LFCVHYFHRTF [SRD5A2_Y91] | 0.989
89 | SSENPCATIKD [MEGF10_Y1030_Y1030C] | 0.438
90 | ACRSLYGGFVE [MVD_Y164] | 0.621
91 | SKAFAYVHFDS [PABPC5_Y149_G146A_YF] | 0.443
92 | SVVVPYEPLEV [TP53_Y220_P223L] | 0.489
93 | VAFLYYKSIGP [ADGRL4_Y302_V300L] | 0.389
94 | CTTIHYNFMCK [TP53_Y234_N239K_YF] | 0.407
95 | TKVVHYRKWIK [KLK2_Y249] | 0.379
96 | RKRQFYLYKGK [RSPO4_Y112_C107R] | 0.602
97 | EALSLYTKLMN [STAM_Y371] | 0.411
98 | GQSKGYRPKLY [SIPA1L3_Y1376] | 0.431
99 | WNDPDYMDSRR [GAA_Y407_L405P] | 0.351

These sequences were tested on c-Abl (mouse) in the same assay as above.

Row | Sequence | phosphorylation enrichment
100 | SVVVPYEPAEV [TP53_Y220_P223A] | 0.708
101 | MLEVPYVDHNS [F10_Y384_R387H] | 0.817
102 | LVIIKYLPEWT [PSEN1_Y240_F237I] | 1.5
103 | AGLVQYFMEHH [PTPN11_Y80_E76G_YF] | 0.741
104 | RELGEYPLAEF [ALDH1A3_Y492_A493P_YF] | 0.753
105 | LIHTKYPQLLP [AHCY_Y143] | 0.575
106 | MQMEEYRGRVE [BTNL2_Y91_W94R] | 0.458
107 | EDEGLYMVRVP [MYOM3_Y343] | 0.812
108 | FKGIVYSVSSD [DCX_Y70_A71S] | 0.887
109 | PLGVPYLDKPP [JMJD7_Y31_A28G] | 1.57
110 | QPAGNYSLSSV [ARFGAP3_Y473] | 0.996
111 | CTNPQYLAAGS [RABL3_Y185_R184Q] | 0.602
112 | RGDTVYTVNRM [KBTBD13_Y404] | 1.06
113 | FESPRYLQVRI [FANCA_Y488_H492R] | 0.68
114 | AHAGEYGAGAL [HBA1_Y25_E28G] | 0.616
115 | FFRKFCNKSED [RYR1_Y4864_Y4864C] | 0.677
116 | EPSVDYCVVKI [CAD_Y735] | 0.774

Row | Sequence | phosphorylation enrichment
117 | SAQHHYESLQT [BIN1_Y157_R154Q] | 0.601
118 | AAPAAHDAADT [GAMT_Y27_Y27H] | 0.48
119 | SHKELYKWFTS [DYNC1H1_Y3051_E3048K] | 0.566
120 | CFTRQYTLPPG [HSPB1_Y142_K141Q] | 0.722
121 | LFCVHYFHRTF [SRD5A2_Y91] | 2.35
122 | SSENPCATIKD [MEGF10_Y1030_Y1030C] | 0.509
123 | ACRSLYGGFVE [MVD_Y164] | 0.511
124 | SKAFAYVHFDS [PABPC5_Y149_G146A_YF] | 0.669
125 | SVVVPYEPLEV [TP53_Y220_P223L] | 0.697
126 | VAFLYYKSIGP [ADGRL4_Y302_V300L] | 1.43
127 | CTTIHYNFMCK [TP53_Y234_N239K_YF] | 0.562
128 | TKVVHYRKWIK [KLK2_Y249] | 0.462
129 | RKRQFYLYKGK [RSPO4_Y112_C107R] | 0.296
130 | EALSLYTKLMN [STAM_Y371] | 0.832
131 | GQSKGYRPKLY [SIPA1L3_Y1376] | 0.329
132 | WNDPDYMDSRR [GAA_Y407_L405P] | 0.614
